Data published in patent US12090209B2, “Twin base linkers for virus inactivation” (priority 2020, dated 2024).
Where no end group is shown, it is not given here.

Target: heat-inactivated SARS-CoV-2 spike (S) protein (Severe acute respiratory syndrome coronavirus 2, UniProt P0DTC2)

TBL-SADE: TBS monomer of Formula 1 wherein L=SADE (SEQ ID NO:2) peptide, no further targeting moieties (also: TBS monomer of Formula 1, L = SADE, functionalized)
binding to SARS-CoV-2 spike (S) protein: confirmed binding
